Measurements published in publication PMC5733569, “Sbp1 modulates the translation of Pab1 mRNA in a poly(A)- and RGG-dependent manner” (RNA, 2018).

Experiments:
[1] = system: Sbp1 (Saccharomyces cerevisiae); test: EMSA; conditions: Hill coefficient 2.1 +/- 0.1; EMSA: native 8% PAGE in THEM buffer (34 mM Tris base, 57 mM Hepes, 0.1 mM EDTA, 2.5 mM MgCl2); binding buffer salt, pH and temperature not given in the …
[2] = system: Pab1 (Saccharomyces cerevisiae); test: EMSA; conditions: EMSA: native 8% PAGE in THEM buffer (34 mM Tris base, 57 mM Hepes, 0.1 mM EDTA, 2.5 mM MgCl2); binding buffer salt, pH and temperature not given in the …
[3] = system: Sbp1RGG (Saccharomyces cerevisiae); test: EMSA; conditions: EMSA: native 8% PAGE in THEM buffer (34 mM Tris base, 57 mM Hepes, 0.1 mM EDTA, 2.5 mM MgCl2); binding buffer salt, pH and temperature not given in the …
[4] = system: Sbp1RRM2 (Saccharomyces cerevisiae); test: EMSA; conditions: EMSA: native 8% PAGE in THEM buffer (34 mM Tris base, 57 mM Hepes, 0.1 mM EDTA, 2.5 mM MgCl2); binding buffer salt, pH and temperature not given in the …
[5] = system: Sbp1RRM1 (Saccharomyces cerevisiae); test: EMSA; conditions: EMSA: native 8% PAGE in THEM buffer (34 mM Tris base, 57 mM Hepes, 0.1 mM EDTA, 2.5 mM MgCl2); binding buffer salt, pH and temperature not given in the …
[6] = biological target: T1, C-terminal TAP-tagged eIF4G1 (S. cerevisiae, UniProt P39935 1-952); test: pull-down; IgG-pulldown: eIF4G1-TAP with purified Pab1 and Sbp1 (or Sbp1^m) in the presence of 10x 5′UTR_Pab1 RNA; conditions: both partners purified
T1 construct: eIF4G1, translation initiation factor of S. cerevisiae; the TAP tag was inserted at the end of the eIF4G1 gene in its chromosome locus; also called eIF4G1-TAP; source: RNase A and 1 M KCl wash to remove endogenous RNAs
T1 sequence (looked up): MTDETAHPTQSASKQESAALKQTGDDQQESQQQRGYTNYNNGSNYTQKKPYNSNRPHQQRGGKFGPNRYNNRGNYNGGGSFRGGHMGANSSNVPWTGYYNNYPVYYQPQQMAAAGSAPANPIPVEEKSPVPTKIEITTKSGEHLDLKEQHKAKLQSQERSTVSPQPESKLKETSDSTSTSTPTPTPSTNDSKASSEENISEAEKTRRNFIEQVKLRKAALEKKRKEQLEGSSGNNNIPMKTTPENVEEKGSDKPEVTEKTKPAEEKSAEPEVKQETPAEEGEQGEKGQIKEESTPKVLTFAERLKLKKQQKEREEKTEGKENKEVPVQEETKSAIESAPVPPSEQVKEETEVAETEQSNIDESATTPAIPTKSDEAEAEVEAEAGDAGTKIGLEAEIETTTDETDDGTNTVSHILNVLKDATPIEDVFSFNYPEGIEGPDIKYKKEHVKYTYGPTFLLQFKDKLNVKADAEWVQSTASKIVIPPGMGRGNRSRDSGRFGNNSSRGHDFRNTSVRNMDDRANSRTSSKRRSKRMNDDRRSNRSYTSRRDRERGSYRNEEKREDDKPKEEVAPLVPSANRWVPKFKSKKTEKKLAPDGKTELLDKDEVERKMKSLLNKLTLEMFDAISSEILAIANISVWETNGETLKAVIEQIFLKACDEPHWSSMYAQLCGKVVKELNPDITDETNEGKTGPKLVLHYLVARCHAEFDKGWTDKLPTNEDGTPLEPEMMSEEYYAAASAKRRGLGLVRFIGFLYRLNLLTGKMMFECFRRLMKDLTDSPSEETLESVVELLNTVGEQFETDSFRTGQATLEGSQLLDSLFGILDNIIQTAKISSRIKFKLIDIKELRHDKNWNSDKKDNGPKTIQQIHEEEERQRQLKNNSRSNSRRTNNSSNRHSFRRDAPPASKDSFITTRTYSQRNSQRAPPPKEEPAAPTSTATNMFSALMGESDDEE

[7] = biological target: Pab1 (purified, as added in the IgG-pulldown and EMSA) (S. cerevisiae) (UniProt P04147)

Q: What does the source list for 5'UTRPab1?
A: Kd [1]: 26.5 nM; Kd [2]: 31.2 nM; Kd [3]: 2700 nM; Kd [4]: 900 nM; Kd [5]: 1100 nM

B1: Pab1 (purified, as added in the IgG-pulldown and EMSA) (natural protein, S. cerevisiae, UniProt P04147 1-577, looked up)
chain: MADITDKTAEQLENLNIQDDQKQAATGSESQSVENSSASLYVGDLEPSVSEAHLYDIFSPIGSVSSIRVCRDAITKTSLGYAYVNFNDHEAGRKAIEQLNYTPIKGRLCRIMWSQRDPSLRKKGSGNIFIKNLHPDIDNKALYDTFSVFGDILSSKIATDENGKSKGFGFVHFEEEGAAKEAIDALNGMLLNGQEIYVAPHLSRKERDSQLEETKAHYTNLYVKNINSETTDEQFQELFAKFGPIVSASLEKDADGKLKGFGFVNYEKHEDAVKAVEALNDSELNGEKLYVGRAQKKNERMHVLKKQYEAYRLEKMAKYQGVNLFVKNLDDSVDDEKLEEEFAPYGTITSAKVMRTENGKSKGFGFVCFSTPEEATKAITEKNQQIVAGKPLYVAIAQRKDVRRSQLAQQIQARNQMRYQQATAAAAAAAAGMPGQFMPPMFYGVMPPRGVPFNGPNPQQMNPMGGMPKNGMPPQFRNGPVYGVPPQGGFPRNANDNNQFYQQKQRQALGEQLYKKVSAKTSNEEAAGKITGMILDLPPQEVFPLLESDELFEQHYKEASAAYESFKKEQEQQTEQA
notes: it may be the same molecule as m1
Q: Does B1 bind [6]?
A: Result: binds

B2: Sbp1 (natural protein)
chain: MSAEIEEATNAVNNLSINDSEQQPRAPTHKTVIDPEDTIFIGNVAHECTEDDLKQLFVEEFGDEVSVEIPIKEHTDGHIPASKHALVKFPTKIDFDNIKENYDTKVVKDREIHIKRARTPGQMQRGGFRGRGGFRGRGGFRGGFRGGYRGGFRGRGNFRGRGGARGGFNGQKREKIPLDQMERSKDTLYINNVPFKATKEEVAEFFGTDADSISLPMRKMRDQHTGRIFTSDSANRGMAFVTFSGENVDIEAKAEEFKGKVFGDRELTVDVAVIRPENDEEEIEQETGSEEKQE
Q: How did the cap-dependent translation initiation activity of the 5′UTR Pab1 luciferase reporter in yeast cell extract with an increasing amount of Sbp1 [7] turn out when B2 was run?
A: Its cap-dependent translation initiation activity of the 5′UTR Pab1 luciferase reporter in yeast cell extract with an increasing amount of Sbp1 is 20 to 60 % decrease.
